The results in this text go back to patent publication US20170198040A1 (Novartis, published 2017).

The target of test [1] is T1, WT human CD32b1 expressed on stably transfected cells (human, UniProt P31994 43-310).
T1 construct: also called huCD32b; WT CD32b
T1 sequence: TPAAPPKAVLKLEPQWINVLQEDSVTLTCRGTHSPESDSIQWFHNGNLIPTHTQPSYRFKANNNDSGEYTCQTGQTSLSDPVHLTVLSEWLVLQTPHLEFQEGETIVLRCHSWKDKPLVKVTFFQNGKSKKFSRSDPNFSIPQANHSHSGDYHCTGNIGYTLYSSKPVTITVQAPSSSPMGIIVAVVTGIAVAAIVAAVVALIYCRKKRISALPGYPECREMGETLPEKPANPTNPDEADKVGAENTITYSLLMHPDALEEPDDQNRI
Nature of the test: flow cytometry on stable CHO cells expressing huCD32b (MW83); hIgG1 [N297A] antibody, GMFI. As for the experimental part: (§1) HuCD32b and huCD32a have high degree of sequence homology. […] CHO cells were collected following detachment with PBS containing 2 mM EDTA and pelleted. Cell pellets were washed once in PBS and suspended in FACS Buffer (PBS1× containing 2% BSA, 2 mM EDTA and 0.1% NaN3), counted and suspended at 0.25×10⁶ cells per ml. 50'000 cells/well (200 μl) were then dispensed in V-bottomed 96 well plates. Plates were spun for 5 min at 1600 rpm and the supernatant discarded. […] After 3 successive washes with FACS buffer, cells were suspended in 50 μl FACS buffer containing a 1/100 dilution of the F(ab′)2 anti-human F(ab′)2-PE (Jackson Immunoresearch#109-116-097) and further incubated 30 min at 4° C. Cells were washed twice and suspended in 200 μl FACS buffer and acquired on a FACS Canto II (acquisition of 5000 cells in the live cell gate). The Geometric Mean Fluorescence (GMFI in the PE channel) was used as a measure of the binding intensity of each antibody.
A general note: Flow cytometry measures light scatter and fluorescence of single cells or particles in a stream.

Another test concerns the target T2, MW82 (huCD32a H131) (human, UniProt P12318).
T2 sequence (receptor, looked up): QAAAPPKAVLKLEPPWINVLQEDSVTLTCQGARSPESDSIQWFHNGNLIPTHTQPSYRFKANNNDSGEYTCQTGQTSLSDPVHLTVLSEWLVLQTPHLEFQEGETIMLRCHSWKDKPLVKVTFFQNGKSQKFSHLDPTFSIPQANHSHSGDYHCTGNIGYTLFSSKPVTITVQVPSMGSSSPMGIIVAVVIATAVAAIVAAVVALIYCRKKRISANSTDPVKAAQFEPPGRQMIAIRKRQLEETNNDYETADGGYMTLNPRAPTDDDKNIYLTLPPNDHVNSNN
The test can be described thus: flow cytometry on stable CHO cells expressing huCD32a H131 (MW82); hIgG1 [N297A] antibody, GMFI. As for the experimental part:
as §1

Test [2] addresses T3, human CD32b expressed endogenously on human cells (human, UniProt P31994 43-310).
T3 construct: whole, on cells; The background says that CD32b1 is the form on lymphoid cells and CD32b2 the form on myeloid cells; also called CD32b on primary human B cells, plasma cells, macrophages, BJAB, KARPAS422 and Daudi cells
T3 sequence (looked up): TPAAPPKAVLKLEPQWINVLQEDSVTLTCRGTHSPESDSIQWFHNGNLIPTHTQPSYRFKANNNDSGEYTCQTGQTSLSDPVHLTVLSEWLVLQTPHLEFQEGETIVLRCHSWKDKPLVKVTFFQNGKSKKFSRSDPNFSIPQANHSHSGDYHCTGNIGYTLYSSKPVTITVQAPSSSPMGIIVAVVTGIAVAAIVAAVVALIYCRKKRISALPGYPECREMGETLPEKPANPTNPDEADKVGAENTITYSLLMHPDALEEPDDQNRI
The test can be described thus: flow cytometry on BJAB cells; biotinylated hIgG1 [N297A] antibody, streptavidin-PE, GMFI. As for the experimental part: The binding of huCD32b specific antibodies to the BJAB cell line was evaluated by flow cytometry. BJAB cells were collected and suspended in FACS Buffer (PBS1× containing 2% BSA, 2 mM EDTA), counted and suspended at 0.25×10⁶ cells per ml. 50'000 cells/well (200 μl) were then dispensed in V-bottomed 96 well plates. Plates were spun for 5 min at 1500 rpm and the supernatant discarded. […] Biotinylation of antibodies was performed using the Lightning-Link biotin conjugation kit (Type A) from Innova Biosciences (Cat. No 704-0010) according to the supplier's instructions. After 2 successive washes with FACS buffer, cells were suspended in 50 μl FACS buffer containing a 1/500 dilution of Streptavidin-PE (Invitrogen 521388) and further incubated for 20 min at 4° C. Cells were washed twice and suspended in 200 μl FACS buffer and acquired on a FACS Fortessa. The Geometric Mean Fluorescence (GMFI in the PE channel) was used as a measure of the binding intensity of each antibody.

Test [3] addresses T4, huCD64 (Fc gamma RI) expressed on stable CHO cells (human, UniProt P12314 16-374).
T4 construct: whole, on cells; also called CHO-huCD64
The test can be described thus: flow cytometry on stable CHO cells expressing huCD64; hIgG1 [N297A] antibody, GMFI; the text ascribes this binding to the Fc portion. As to the method:
The binding of huCD32b specific antibodies was evaluated by flow cytometry using stable CHO cell lines expressing the low affinity human CD16 variants (i.e huCD16a or huCD16b variants) and the high affinity huCD64 (FcγRI). CHO cells transfected with huCD16a variants were also transfected with the common Fcγ chain in order to allow for surface expression. CHO cells were collected following detachment with PBS containing 2 mM EDTA and pelleted. Cell pellets were washed once in PBS and suspended in FACS Buffer (PBS1× containing 2% BSA, 2 mM EDTA and 0.1% NaN3), counted and suspended at 0.25×10⁶ cells per ml. 50'000 cells/well (200 μl) were then dispensed in V-bottomed 96 well plates. Plates were spun for 5 min at 1600 rpm and the supernatant discarded. […] After 3 successive washes with FACS buffer, cells were suspended in 50 μl FACS buffer containing a 1/100 dilution of the F(ab′)2 anti-human F(ab′)2-PE (Jackson Immunoresearch#109-116-097) and further incubated 30 min at 4° C. Cells were washed twice and suspended in 200 μl FACS buffer and acquired on a FACS Canto II (acquisition of 5000 cells in the live cell gate). The Geometric Mean Fluorescence (GMFI in the PE channel) was used as a measure of the binding intensity of each antibody.

T4 sequence (P12314 16-374): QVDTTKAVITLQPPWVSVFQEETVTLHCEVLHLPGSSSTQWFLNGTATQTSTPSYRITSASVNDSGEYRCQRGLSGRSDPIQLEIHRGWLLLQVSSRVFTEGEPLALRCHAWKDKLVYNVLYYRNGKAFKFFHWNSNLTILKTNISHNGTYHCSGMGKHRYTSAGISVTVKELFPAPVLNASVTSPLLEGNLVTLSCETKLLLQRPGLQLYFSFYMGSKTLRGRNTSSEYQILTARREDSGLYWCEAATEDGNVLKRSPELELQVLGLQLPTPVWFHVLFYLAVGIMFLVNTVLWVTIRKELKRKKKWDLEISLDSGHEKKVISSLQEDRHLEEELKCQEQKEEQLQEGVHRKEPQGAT

B1: NOV1219 (antibody, human IgG1, lambda, N297A)
heavy chain: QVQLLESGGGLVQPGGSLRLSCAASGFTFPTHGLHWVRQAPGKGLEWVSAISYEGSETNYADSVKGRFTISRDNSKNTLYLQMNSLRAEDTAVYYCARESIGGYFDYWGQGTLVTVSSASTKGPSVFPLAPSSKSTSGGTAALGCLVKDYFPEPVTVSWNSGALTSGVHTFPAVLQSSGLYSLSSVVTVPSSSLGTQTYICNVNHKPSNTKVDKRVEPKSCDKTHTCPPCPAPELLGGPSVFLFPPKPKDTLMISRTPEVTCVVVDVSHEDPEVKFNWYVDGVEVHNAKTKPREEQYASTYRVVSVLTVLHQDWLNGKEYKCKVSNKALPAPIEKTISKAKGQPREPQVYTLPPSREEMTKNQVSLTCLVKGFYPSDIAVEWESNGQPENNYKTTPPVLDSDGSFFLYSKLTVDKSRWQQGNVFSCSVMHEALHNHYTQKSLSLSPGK
light chain: SYELTQPLSVSVALGQTARITCSGDALGKNTVSWYQQKPGQAPVLVIYDDTDRPSGIPERFSGSNSGNTATLTISRAQAGDEADYYCSSTDLSTVVFGGGTKLTVLGQPKAAPSVTLFPPSSEELQANKATLVCLISDFYPGAVTVAWKADSSPVKAGVETTTPSKQSNNKYAASSYLSLTPEQWKSHRSYSCQVTHEGSTVEKTVAPTECS
notes: also called NOV1219_N297A; NOV1219 on a human IgG1 [N297A] scaffold
Turning to B1, in test [1], the EC50 (read off the curve) (in general, the concentration at which the effect is half-maximal) was roughly 30 nM. For the same molecule, the binding result with MW82 (huCD32a H131) is given as “no binding (tested: 1000 nM)”; in test [3], “binds”. Besides, in test [2], the “binding affinity (printed 'BJABs:')” value stood at 110 nM.
